Kd data for one molecule are collected here from paper PMC6166933 (PLoS ONE, 2018).

In the test the target is T1, Recombinant human RO60 (human, UniProt P10155 1-538).
T1 construct: Recombinant human RO60 (rRO60), Abcam ab73786; see the vendor's data sheet for ab73786; also called rRO60; source: bought: Abcam (ab73786)
As to the kind of experiment: BLI; BLItz system; antibody against RO60 captured on a Protein-A biosensor, rRO60 bound to it, rDDX6 bound for 2 min and dissociation for 2 min; 25°C; 10 mM Tris-HCl (pH 8.0), 150 mM NaCl; 193 nM rDDX6 with 917 nM or 1833 nM rRO60. To be noted: both partners purified.

Values joined by “and” are separate entries in the source; they are usually repeats but may differ in a detail not shown here. Equal entries are not always repeated.

T1 sequence (P10155 whole entry): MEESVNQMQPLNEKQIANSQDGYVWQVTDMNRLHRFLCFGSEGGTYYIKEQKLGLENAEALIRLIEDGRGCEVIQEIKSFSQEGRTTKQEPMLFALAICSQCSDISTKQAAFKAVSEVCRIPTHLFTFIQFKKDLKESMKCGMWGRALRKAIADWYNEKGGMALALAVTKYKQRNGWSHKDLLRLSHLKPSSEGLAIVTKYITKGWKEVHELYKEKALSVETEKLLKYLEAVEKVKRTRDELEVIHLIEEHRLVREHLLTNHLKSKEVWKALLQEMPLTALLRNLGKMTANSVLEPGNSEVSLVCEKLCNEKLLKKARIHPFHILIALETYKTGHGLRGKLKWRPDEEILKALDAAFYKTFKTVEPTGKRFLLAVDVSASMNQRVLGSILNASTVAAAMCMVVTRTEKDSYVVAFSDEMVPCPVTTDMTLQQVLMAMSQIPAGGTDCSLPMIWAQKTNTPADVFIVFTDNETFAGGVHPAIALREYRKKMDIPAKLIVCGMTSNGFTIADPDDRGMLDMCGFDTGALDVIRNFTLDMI

B1: Recombinant GST-tagged human DDX6 (natural protein, UniProt P26196 1-483, looked up)
chain: MSTARTENPVIMGLSSQNGQLRGPVKPTGGPGGGGTQTQQQMNQLKNTNTINNGTQQQAQSMTTTIKPGDDWKKTLKLPPKDLRIKTSDVTSTKGNEFEDYCLKRELLMGIFEMGWEKPSPIQEESIPIALSGRDILARAKNGTGKSGAYLIPLLERLDLKKDNIQAMVIVPTRELALQVSQICIQVSKHMGGAKVMATTGGTNLRDDIMRLDDTVHVVIATPGRILDLIKKGVAKVDHVQMIVLDEADKLLSQDFVQIMEDIILTLPKNRQILLYSATFPLSVQKFMNSHLQKPYEINLMEELTLKGVTQYYAYVTERQKVHCLNTLFSRLQINQSIIFCNSSQRVELLAKKISQLGYSCFYIHAKMRQEHRNRVFHDFRNGLCRNLVCTDLFTRGIDIQAVNVVINFDFPKLAETYLHRIGRSGRFGHLGLAINLITYDDRFNLKSIEEQLGTEIKPIPSNIDKSLYVAEYHSEPVEDEKP
notes: Recombinant GST-tagged human DDX6 (rDDX6), Abcam ab114574; it is not clear that this means full length; The printed 79 kDa with GST would fit the whole protein; also called rDDX6; source: bought: Abcam (ab114574)
Broadly, the Kd is the free concentration of one partner at which half of the binding sites on the other are occupied at equilibrium, for simple one-to-one binding. For the molecule B1, the Kd is 620 nM and 950 nM.
